B1: library; numbered along this chain (parent)
chain: MAAAAAAAAEQQSSNGPVKKSMREKAVERRSVNKEHNSNFKAGYIPIDEDRLHKTGLRGRKGNLAICVIILLFILAVINLIITLVIWAVIRIGPNGCDSMEFHESGLLRFKQVSDMGVIHPLYKSTVGGRRNENLVITGNNQPIVFQQGTTKLSVENNKTSITSDIGMQFFDPRTQNILFSTDYETHEFHLPSGVKSLNVQKASTERITSNATSDLNIKVDGRAIVRGNEGVFIMGKTIEFHMGGNMELKAENSIILNGSVMVSTTRLPSSSSGDQLGSGDWVRYKLCMCADGTLFKVQVTSQNMGCQISDNPCGNTH

Variants of: B1
Assay: SGCB cell-surface expression functional score (HA stain, bin4 vs bin1, normalised to synonymous) (log10 ratio); higher = more cell-surface SGCB (functional)
Method in brief: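 Human beta-sarcoglycan, tagged with HA and fused to YFP, was built into codon-saturation libraries and delivered by lentivirus at MOI <0.1 into HEK293 cells that stably express alpha-, gamma- and delta-sarcoglycan. After 72 hours, YFP-positive cells were sorted and grown for 5–7 days, then stained on ice with Alexa Fluor 647 anti-HA, fixed, sorted into four 5% intensity bins and amplicon-sequenced. Each variant's functional score is the log ratio of its frequency in the highest bin to that in the lowest bin, taken as the median across codons and transductions. Transductions were done in duplicate, and synonymous variants were scaled per section to mean 0, SD 0.5.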

Row | Variant | SGCB cell-surface expression functional score (log10)
1 | MAAAAAAAAEQQSSNGPVKKSMREKAVERRSVNKEHNSNFKAGYIPIDEDRLHKTGLRGRKGNLYICVIILLFILAVINLIITLVIWAVIRIGPNGCDSMEFHESGLLRFKQVSDMGVIHPLYKSTVGGRRNENLVITGNNQPIVFQQGTTKLSVENNKTSITSDIGMQFFDPRTQNILFSTDYETHEFHLPSGVKSLNVQKASTERITSNATSDLNIKVDGRAIVRGNEGVFIMGKTIEFHMGGNMELKAENSIILNGSVMVSTTRLPSSSSGDQLGSGDWVRYKLCMCADGTLFKVQVTSQNMGCQISDNPCGNTH [A65Y] | 0.12
2 | MAAAAAAAAEQQSSNGPVKKSMREKAVERRSVNKEHNSNFKATYIPIDEDRLHKTGLRGRKGNLAICVIILLFILAVINLIITLVIWAVIRIGPNGCDSMEFHESGLLRFKQVSDMGVIHPLYKSTVGGRRNENLVITGNNQPIVFQQGTTKLSVENNKTSITSDIGMQFFDPRTQNILFSTDYETHEFHLPSGVKSLNVQKASTERITSNATSDLNIKVDGRAIVRGNEGVFIMGKTIEFHMGGNMELKAENSIILNGSVMVSTTRLPSSSSGDQLGSGDWVRYKLCMCADGTLFKVQVTSQNMGCQISDNPCGNTH [G43T] | 0.05
3 | MAADAAAAAEQQSSNGPVKKSMREKAVERRSVNKEHNSNFKAGYIPIDEDRLHKTGLRGRKGNLAICVIILLFILAVINLIITLVIWAVIRIGPNGCDSMEFHESGLLRFKQVSDMGVIHPLYKSTVGGRRNENLVITGNNQPIVFQQGTTKLSVENNKTSITSDIGMQFFDPRTQNILFSTDYETHEFHLPSGVKSLNVQKASTERITSNATSDLNIKVDGRAIVRGNEGVFIMGKTIEFHMGGNMELKAENSIILNGSVMVSTTRLPSSSSGDQLGSGDWVRYKLCMCADGTLFKVQVTSQNMGCQISDNPCGNTH [A4D] | 0.21
4 | MAAAAAAAAEQQSSNGPVKKSMREKAVERRSVNKEHNSNFKAGYIPIDEDRLHKTGLRGRKGNLAICVIILLFILAVINLIITLVIWAVIRIGPNGCDSMEFHESGLLRFKQVSDMGVIHPLYKSTVGGRRNENLVITGNNQPIVFQQGTTKLSVENNKTSITSDIGMQFFDPRTQNILFSTDYETHERHLPSGVKSLNVQKASTERITSNATSDLNIKVDGRAIVRGNEGVFIMGKTIEFHMGGNMELKAENSIILNGSVMVSTTRLPSSSSGDQLGSGDWVRYKLCMCADGTLFKVQVTSQNMGCQISDNPCGNTH [F189R] | -2.1
5 | MAAAAAAAAEQQSSNGPVKKSMREKAVERRSVNKEHNSNFKAGYIPIDEDRLHKTGLRGRKGNLAICVIILLFILAVINLIITLVIWAVIRIGPNGCDSMEFHESGLLRFKQVSDMGVIHPLYKSTVGGRRNENLVITGNNQPIVFQQGTTKLSVENNKTSITSDIGMQFFDPRTQNILFSTDYETHEFHLPSGVKSLNVQKASTERITSNATSDLNIKVDGRAIVRGNEGVFIMGKTIEFHMGGNMELPAENSIILNGSVMVSTTRLPSSSSGDQLGSGDWVRYKLCMCADGTLFKVQVTSQNMGCQISDNPCGNTH [K250P] | -0.39
6 | MAAAAAAAAEQQSSNGPVKKSMREKAVERRSVNKEHNSNFKAGYIPIDEDRLHKTGLRGRKGNLAICVIILLFILAVINLIITLVIWAVIRIGPNGCDSMEFHESGLLRFKQVSDMGVIHPLYKSTVGGRRNENLVITGNNQLIVFQQGTTKLSVENNKTSITSDIGMQFFDPRTQNILFSTDYETHEFHLPSGVKSLNVQKASTERITSNATSDLNIKVDGRAIVRGNEGVFIMGKTIEFHMGGNMELKAENSIILNGSVMVSTTRLPSSSSGDQLGSGDWVRYKLCMCADGTLFKVQVTSQNMGCQISDNPCGNTH [P143L] | -0.54
7 | MAAAAAAAAEQQSSNGPVKKSMREKHVERRSVNKEHNSNFKAGYIPIDEDRLHKTGLRGRKGNLAICVIILLFILAVINLIITLVIWAVIRIGPNGCDSMEFHESGLLRFKQVSDMGVIHPLYKSTVGGRRNENLVITGNNQPIVFQQGTTKLSVENNKTSITSDIGMQFFDPRTQNILFSTDYETHEFHLPSGVKSLNVQKASTERITSNATSDLNIKVDGRAIVRGNEGVFIMGKTIEFHMGGNMELKAENSIILNGSVMVSTTRLPSSSSGDQLGSGDWVRYKLCMCADGTLFKVQVTSQNMGCQISDNPCGNTH [A26H] | 0.39
8 | MAAAAAAAAEQQSSNGPVKKSMREKAVERRSVNKEHNSNFKAGYIPIDEDRLHKTGLRGRKGNLAICVIILLFILAVINLIITLVIWAVIRIGPNGCDSMEFHESGLLRFKQVSDMGVIHPLYKSTVGGRRNENLVITGNNQPIVFQQGTTKWSVENNKTSITSDIGMQFFDPRTQNILFSTDYETHEFHLPSGVKSLNVQKASTERITSNATSDLNIKVDGRAIVRGNEGVFIMGKTIEFHMGGNMELKAENSIILNGSVMVSTTRLPSSSSGDQLGSGDWVRYKLCMCADGTLFKVQVTSQNMGCQISDNPCGNTH [L153W] | -1.15
9 | MAAAAAAAAEQQSSNGPVKKSMREKAVERRSVNKEHNSNFKAGYIPIDEDRLHKTGLRGRKGNLAICVIILLFILAVINLIITLVIWAVIRIGPNGCDSMEFHESGLLRFKQVSDMGVIHPLYKSTVGGRRNENLVITGNNQPIVFQQGTTKLSVENNKTSITSDIGMQFFDPRTQNILFSTDYETHEFHLPSGVKSLNVQKASTERITSNATSDLNIKVDGRAIVRGNEGVFIMGKTIEFHMGGNMELKAENSIILNGSVMVSTTRLPSSSIGDQLGSGDWVRYKLCMCADGTLFKVQVTSQNMGCQISDNPCGNTH [S273I] | 0.05
10 | MAAAAAAAAEQQSSNGPVKKSMREKAVERRSVNKEHNSNFKAGYIPIDEDRLHKTGLRGRKGNLAICVIILLFILAVINLIITLVIWAVIRIGPNGCDSMEFHESGLLRFKQVSDMGVIHPLYKSTVGGRRNENLVITGNNQPIVFQQGTTKLSVENNKTSITSDIGMQFFDPRTQNILFSTDYETHEFHLPSGVKSLNVQKASTERITSNATSDLNIKVDGRAIVRGNEGVFIMGKTIEFHMGGNMELKAENSIILNGSVMVSTTRLPSSSLGDQLGSGDWVRYKLCMCADGTLFKVQVTSQNMGCQISDNPCGNTH [S273L] | -0.2
11 | MAAAAAAAAEQQSSNGPVKKSMREKAVERRSVNKEHNSNFKAGYIPIDEDRLHKTGLRGRKGNLAICVIILLFYLAVINLIITLVIWAVIRIGPNGCDSMEFHESGLLRFKQVSDMGVIHPLYKSTVGGRRNENLVITGNNQPIVFQQGTTKLSVENNKTSITSDIGMQFFDPRTQNILFSTDYETHEFHLPSGVKSLNVQKASTERITSNATSDLNIKVDGRAIVRGNEGVFIMGKTIEFHMGGNMELKAENSIILNGSVMVSTTRLPSSSSGDQLGSGDWVRYKLCMCADGTLFKVQVTSQNMGCQISDNPCGNTH [I74Y] | -0.07
12 | MAAAAAAAAEQQSSNGPVKKSMRKKAVERRSVNKEHNSNFKAGYIPIDEDRLHKTGLRGRKGNLAICVIILLFILAVINLIITLVIWAVIRIGPNGCDSMEFHESGLLRFKQVSDMGVIHPLYKSTVGGRRNENLVITGNNQPIVFQQGTTKLSVENNKTSITSDIGMQFFDPRTQNILFSTDYETHEFHLPSGVKSLNVQKASTERITSNATSDLNIKVDGRAIVRGNEGVFIMGKTIEFHMGGNMELKAENSIILNGSVMVSTTRLPSSSSGDQLGSGDWVRYKLCMCADGTLFKVQVTSQNMGCQISDNPCGNTH [E24K] | 0.09
13 | MAAAAAAAAEQQSSNGPVKKSMREKAVERRSVNKEHNSNFKAGYIPIDEDRLHKTGLRGRKGNLAICVIILLFILAVINLIITLVIWAVIRIGPNGCDSMEFHESGLLRFKQVSDMGVIHPLYKSTVGGRRNENLVITGNNQPIVFQQGTTKLSVENNKTSITSDVGMQFFDPRTQNILFSTDYETHEFHLPSGVKSLNVQKASTERITSNATSDLNIKVDGRAIVRGNEGVFIMGKTIEFHMGGNMELKAENSIILNGSVMVSTTRLPSSSSGDQLGSGDWVRYKLCMCADGTLFKVQVTSQNMGCQISDNPCGNTH [I166V] | 0.13
14 | MAAAAAAAAEQQSSNGPVKKSMREKAVERRSVNKEHNSNFKAGYIPIDEDRLHKTGLRGRKGNLAICVIILLFILAVINLIITLVIWAVIRIGPNGCDSMETHESGLLRFKQVSDMGVIHPLYKSTVGGRRNENLVITGNNQPIVFQQGTTKLSVENNKTSITSDIGMQFFDPRTQNILFSTDYETHEFHLPSGVKSLNVQKASTERITSNATSDLNIKVDGRAIVRGNEGVFIMGKTIEFHMGGNMELKAENSIILNGSVMVSTTRLPSSSSGDQLGSGDWVRYKLCMCADGTLFKVQVTSQNMGCQISDNPCGNTH [F102T] | -1.16
15 | MAAAAAAAAEQQSSNGPVKKSMREKAVERRSVNKEHNSNFKAGYIPIDEDRLHKTGLRGRKGNLAICVIILLFILAVINLIITLVIWAVIRIGPNGCDSMEFHESGLLRFKQVSDMGVIHPLYKSTVGGRRNENLVITGNNQPIVFQQGTTKLSVENNKTSITSDIGMQFFDPRTQNILFSTDYETHEFHLPSGVKSLNVQKASTERITSNATSDLFIKVDGRAIVRGNEGVFIMGKTIEFHMGGNMELKAENSIILNGSVMVSTTRLPSSSSGDQLGSGDWVRYKLCMCADGTLFKVQVTSQNMGCQISDNPCGNTH [N217F] | 1.13
16 | MAAAAAAAAEQQSSNGPVKKSMREKAVERRSVNKEHNSNFKAGYIPIDEDRLHKTGLRGRKGNLAICVIILLFILAVINLIITLVIWAVIRIGPNGCDSMEFHESGLLRFKQVSDMGVIHPLYKSTVGGRRNENLVITGNAQPIVFQQGTTKLSVENNKTSITSDIGMQFFDPRTQNILFSTDYETHEFHLPSGVKSLNVQKASTERITSNATSDLNIKVDGRAIVRGNEGVFIMGKTIEFHMGGNMELKAENSIILNGSVMVSTTRLPSSSSGDQLGSGDWVRYKLCMCADGTLFKVQVTSQNMGCQISDNPCGNTH [N141A] | -0.39
17 | MAAAAAAAAEQQSSNGPVKKSMREKAVERRSVNKEHNSNFKAGYIPIDEDRLHKTGLRGRKGNLAICVIILLFILAVINLIITLVIWAVIRIGPNGCDSMEFHESGLLRFKQVSDMGVIHPLYKSTVGGRRNENMVITGNNQPIVFQQGTTKLSVENNKTSITSDIGMQFFDPRTQNILFSTDYETHEFHLPSGVKSLNVQKASTERITSNATSDLNIKVDGRAIVRGNEGVFIMGKTIEFHMGGNMELKAENSIILNGSVMVSTTRLPSSSSGDQLGSGDWVRYKLCMCADGTLFKVQVTSQNMGCQISDNPCGNTH [L135M] | -0.06
18 | MAAAAAAAAEQQSSNGPVKKSMREKAVERRSVNKEHNSNFKAGYIPIDEDRLHKTGLRGRKGNLAICVIILLFILAVINLIITLVIWAVIRIGPNGCDSMEFHESGLLRFKQVSDMGVIHPLYKSTVGGRRNENLVITGNNQPIVFQQGTTKLSVENNKTSITSDIGMQFFDPRTQNILFSTDYETHEFHLPSGVKSLNVQKASTERITSNATSDLNIKVDGRAIVRGNEGVFIMGKTIEFHMGGNMELKAENSIILNGSVMVSTTRLPSSSSGDQLGSGDWVRYKLCMCACGTLFKVQVTSQNMGCQISDNPCGNTH [D292C] | 0.07
19 | MAAAAAAAAEQQSSNGPVKKSMREKAVERRSVNKEHNSNFKAGYIPIDEDRLHKTGLRGRKGNLAICVIILLFILAVINLIITLVIWAVIRIGPNGCDSMEFHESGLLRFKQVSDMGVIHPLYKSTVGGRRNENLVITGNNQPIVFQQGTTKLSVENNKTSITSDIGMQFFDPRTQNILFSTEYETHEFHLPSGVKSLNVQKASTERITSNATSDLNIKVDGRAIVRGNEGVFIMGKTIEFHMGGNMELKAENSIILNGSVMVSTTRLPSSSSGDQLGSGDWVRYKLCMCADGTLFKVQVTSQNMGCQISDNPCGNTH [D183E] | 0.35

Source: the supplement of paper PMC10266784
